We go through 3 molecules from patent US20240092906A1 (Genentech, published 2024).

One assay deals with T1, Human HER2 on cells (human, UniProt P04626 23-1255).
T1 construct: whole, on cells; SKBR3 is HER2-amplified, MCF7 expresses low levels of HER2; also called HER2 on SKBR3 cells; HER2 on MCF7 cells
Put plainly: cell binding of 1Fab-IgG TDB (luciferase read-out), apparent affinity, SKBR3 cells; SKBR3 cells (high HER2), direct cell binding.

The target in assay [1] is T2, Human HER2 extracellular domain (human, UniProt P04626 23-652).
T2 construct: extracellular domain; immobilised on a CM5 chip by amine coupling; also called Hu HER2; HER2 ECD (Sino Biologicals 10004-H08H or Novus Biologicals NBP1-94702)
Put plainly: BIACORE SPR, human HER2 ECD immobilised on a CM5 chip, IgG TDB injected for 180 s at 0.27 to 200 nM in 3-fold dilutions; axes printed as numbers only (0 to 50, -100 to 500).

For assay [2], the target named is T3, Cynomolgus monkey HER2 on transfected CHO cells (cynomolgus monkey, UniProt A0A2K5WUT7 1-1225).
T3 construct: whole, on cells; also called CHO-cynoHER2 High; cyno HER2-expressing cells
Put plainly: cell binding of 1Fab-IgG TDB (luciferase read-out), apparent affinity, CHO-cynoHER2 High cells.

The target in a further assay is CD3 on human T cells (human, UniProt P07766 23-207). Put plainly: cell-based or functional assay.

Where “and” joins values, the source holds several entries; their conditions need not be identical. Equal values may be shown once. Bounds are passed on as bounds.

B1: 4D5 N30S.Y55E.H91A.N54E.D98T 1Fab-IgG TDB, linker not stated (bispecific antibody, V domains shown)
VH 1: not shown
VL 1: DIQMTQSPSSLSASVGDRVTITCRASQDVSTAVAWYQQKPGKAPKLLIYSASFLESGVPSRFSGSRSGTDFTLTISSLQPEDFATYYCQQAYTTPPTFGQGTKVEIK
VH 2: EVQLVQSGAEVKKPGASVKVSCKASGYTFTNYYIHWVRQAPGQGLEWIGWIYPGDGNTKYNEKFKGRATLTADTSTSTAYLELSSLRSEDTAVYYCARDSYSNYYFDYWGQGTLVTVSS
VL 2: DIVMTQSPDSLAVSLGERATINCKSSQSLLNSRTRKNYLAWYQQKPGQPPKLLIYWASTRESGVPDRFSGSGSGTDFTLTISSLQAEDVAVYYCTQSFILRTFGQGTKVEIK
Consider B1, for which the Kd with Human HER2 on cells was 5.08 nM.

B2: 4D5 Y55E.H91A.D98A.F100A.Y102V-IgG TDB (bispecific antibody, V domains shown)
VH 1: EVQLVESGGGLVQPGGSLRLSCAASGFNIKDTYIHWVRQAPGKGLEWVARIYPTNGYTRYADSVKGRFTISADTSKNTAYLQMNSLRAEDTAVYYCSRWGGAGAYAMDVWGQGTLVTVSS
VL 1: not shown
VH 2: B1 VH 2
VL 2: B1 VL 2
notes: IgG TDB, N297G knob-into-hole
In the case of B2, the binding result in assay [1] is recorded as “no binding”.

B3: 4D5-H91A 1Fab-IgG TDB (40G5c anti-CD3 arm), linker not stated (bispecific antibody, V domains shown)
VH 1: not shown
VL 1: not shown
VH 2: B1 VH 2
VL 2: B1 VL 2
notes: The two VH stand in one heavy chain; also called 40G5c 4D5-H91A 1 Fab-IgG TDB
For the molecule B3, the Kd in assay [2] is above 100 nM. Further, in the assay with CD3 on human T cells, the “IC50 of target cell killing, MCF7 cells” value was > 1000 ng/mL and > 1000 pM; the “IC50 of target cell killing, SKBR3 cells” value was 4.2 ng/mL and 28 pM.
